This test addresses CD20 cell surface antigen (human) (UniProt P11836). The experiment in a line: flow cytometry of FAM-ODN fluorescence on Raji cells.
Chain of UniProt P11836 (P11836 whole entry): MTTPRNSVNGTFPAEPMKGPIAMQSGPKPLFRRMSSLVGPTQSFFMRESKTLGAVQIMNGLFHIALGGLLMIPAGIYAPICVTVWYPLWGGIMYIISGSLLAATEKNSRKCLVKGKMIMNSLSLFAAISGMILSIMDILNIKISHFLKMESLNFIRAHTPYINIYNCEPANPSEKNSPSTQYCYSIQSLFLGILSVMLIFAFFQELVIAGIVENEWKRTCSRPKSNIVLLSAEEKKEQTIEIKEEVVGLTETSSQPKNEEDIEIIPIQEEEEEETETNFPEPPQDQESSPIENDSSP

Regarding “Rituximab (anti-CD20 antibody) conjugated cationic immunoliposomes”, the fold fluorescence intensity of FAM-ODN against FAM-ODN loaded LP and Her ILP was found to be 10 fold; the fold fluorescence intensity of FAM-ODN against free FAM-ODN turned out to be 20 fold.

These data come from patent US20110038941A1.
